Laboratory results published in US20170035908A1.
pEC50: −log10 of the molar value.

Legend:
[1] = target: PAM4 antigen (pancreatic cancer mucin, CaPan1 human pancreatic tumor); experiment: ELISA on target mucin antigen (FIG. 9)
[2] = target: PAM4 antigen (pancreatic cancer mucin, CaPan1 human pancreatic tumor); experiment: radioiodinated TF10 mixed with mucin (not shown)
[3] = target: IMP-288 di-HSG hapten-peptide, DOTA-D-Tyr-D-Lys(HSG)-D-Glu-D-Lys(HSG)-NH2; experiment: 111In-IMP-288 mixed with TF10, elution analysis (not shown)
[4] = target: PAM4 antigen (pancreatic cancer mucin, CaPan1 human pancreatic tumor); experiment: TF10/111In-IMP-288 complex mixed with excess mucin, elution analysis

| pEC50 [1] | immunoreactive fraction [2] [%] | percent of peptide bound [3] [%] | percent of TF10-bound IMP-288 eluting at higher molecular weight with excess mucin [4] [%] | Substance |
| --- | --- | --- | --- | --- |
| 8.74 |  |  |  | PAM4-F(ab′)2 |
| 8.85 | 87 | 90 | 92 | TF10 bispecific ([hPAM4]2 x h679) DNL construct (bispecific antibody) |
